Assay: soluble on expression in E. coli; label from the status in PepcDB or PDB records

| Sequence | soluble on expression in E. coli |
| --- | --- |
| TVVVSEAGASVYSASEFAANEFPNLDVSLRGAVSIARRLQDPLAELVKIEPKAIGVGQYQHDVNQTQLARKLDAVVEDCVNAVGVDLNTASAPLLARVAGMTKTLAQNIVEYRDENGRFESRSELKKVPRLGPKAFEQCAGFMRIANGKNPLDASGVHPEAYPVVEKILQATAQSIQDLMSNAGVVRQLDAKQFI | not soluble |
| VANKIKLGHVHLSGCTGCLVSTADNNLGFIKILDNYADLVYSLTLADVRHVPEMDVALVEGSVCIQDHESVEEIRETREKAKIVVALGSCACYGNITRFSRGGQHNQPQHESFLPIGDLIDVDVYIPGCPPSPELIRNVAVMAYMLLEGDEDQKALAGRYLKPLMD | not soluble |
| VDNVFIVGHRKLDMDALGSAVGMQFFAGNIIENSFAVYNPDEMSPDIERAIERLQADGKTRLISVSQAMGLVTPRSLLVMVDHSKISLTLSKEFYEQFQNVIVVDHHRRDDDFPDNAILTFIESGASSAAELVTELIQFQNAKKCLNKIQASVLMAGIMLDTKNFSTRVTSRTFDVASYLRSKGSDSVEIQNISATD | not soluble |
| VEGLNPLIPQKSNRGVIDVAIFREYVSGGKDRAAEDRRRHRELVEESIKKNIGNIIAEESIIGQSKDKKIKIPIRSIKEYQFVYGKNGPSVGSGDGTEKRGEKIGEEKTANGGQGVGQAGNQEGEEIYETEITIEELINYLFDDLNLPDIDKKRIAEQESIRSYKNLGYQRKGIPPRLAKKRSVIEKIKRKQAYLRNSRELGDLDESAEEDIAAQETLDGVRKRFPFSEDDLRYRRVREDRKKDFNAVVICIMDVSGSMDQTKKYLARSFYFLLYQFIRLKYANVDVVFIAHTTTAKEVSEDEFFHRGESGGTYISSGYEKALEIIEQRYNPNSWNIYAFHCSDGDNWSEDNKKAVELGLKLCDVCNLFGYGEIVPGYYSTGSTIKDEFQKSIKRDNFSVITITNKDDVLPGLKKLLEKEGE | soluble |
| VICHGDFAPYNVALNGNQTVGIFDFDTAHPAPRLWDIAYAVYCWAPFKTNEYDALGDLNSQSARAKLFCDSYGLSNAEREKL | not soluble |
| VKNFEWKTIFNWSKNNSMVESLPEGIDKIQIGSGVYNVKSYAEVGKPYGAIYAKTFKRDAEGYILCQLDGSPKEGQDYEYLGCVQADWRGGWNNVFRLGNFSFSVMFDFQKGGKFFSQTSIQSSVDGQSVKSLEGRDADFFSRKILGESDEERYGFMRPQNANTPTANGQIYPDWGRPKGVVLPNCRYDEDVEGLAGQQVLGYCTPERYWMHYTSRDISRFIYDASYVKLREITVSYDLPKKWLRKTPFQTFRVAAVGRNIATLFANTPHGLDPQATSTTGNAQGFERGFNLPSATYGFDIKVSF | not soluble |
| VKVSKECEKIDIILTDGVIILGKIKGQIDSKSLHEHEKKPFSQSGTMNPETSRLLVNLSRPKKEVLDPFVGTGSILIEARWLNYECIGSDLDKAMLQKTKINLNYFNYYCSLLFSSATNLPFRQITSIATDPPYGRSTKNKGAELTQLYEEFFSSASETLTKGGFLVFATDSRFNFIDKLKENSFIIKGLHYLYSHKSLTRAIYVVQKK | not soluble |
| VLNHSIEVALLAGYMASELGLNADKARRGGLLHDIGKAVDQELEGSHTTIGAELARRYGEKEDIINMILSHHGEEEPMTP | not soluble |
| VLPHARKVARETGIPEHFMIAQAALETGWGRHQIRRADNQPSFNLFGIKASGNWRGGVVETVTTEYVDGKPQKLREKFRTYDSYEDAFRDYAKLLQNNPRYAAVLKSRSATAFAWGLQQAGYATDPSYAEKLLKIINSDALSI | not soluble |
| VPQQSATKLVQQWQPLLQRWGELAGVEIKFATARDIPTFEARLMAGEYDIAYMNPYHFTLVNQTPGYTALARAKNKRITGIIVARKGQSVTLDDLQEETIAFPAPRAFAASIITQSELEQKGIKFTPKYVGSHD | not soluble |
| VPSPDDTEVTVARLTSMSSAEEPLTAGRDGLLSLLRNGQLPSRGAKAPQRERYQRIVAAAMELASEGGYDAVQMRAIADRAGVALGTVYRYFPSKNHMLVMGLLMVFEGMRSRFEDVAIPGDTPSERILFVLRKNTEVLEKDRPRYEALVRAFMFADASASAELDAFGALMTEMFAKTIGVEQISDDQLNAIRVIGDVWMSSLVSWVAGRISVDEVMAHLGLAVRLVFRRLGG | not soluble |
| VPWEDVFKSFDPNPLAAGTIAQVHRATLETGDRVVVKVQRPTARADIEQDLALFEMFAEKVGKRPALNQVINMEDVFKHLSTSLHRELDFRQEANNIERMRTVLADYDRLAVPSIHWDLS | not soluble |
| VQLLEQSGAELVKPGASVKLSCTASGFNIEDSYIHWVKQRPEQGLEWIGRIDPEDGETKYAPKFQGKATITADTSSNTAYLHLRRLTSEDTAIYYCGRGAYYIKEDFWGQGTTLTVSSASTKGPSVFPLAPSSKAGGTAALGCLVKDYFPEPVTVSWNSGALTSGVHTFPAVLQSSGLYSLSSVVTVPSSSLGTQTYICNVNHKPSNTKVDKKVEPA | soluble |
| VRFVSELCALHGTDPVPMALIMEPVSKWSPSQVVDWMKGLDDCLQQYIKNFEREKISGDQLLRITHQELEDLGVSRIGHQELILEAVDLLCALNYGLETENLKTLSHKLNASAKNLQNFITGRRRSGHYDGRTSRKLPNDFLTSVVDLIGAAKSLLAWLDRSPFAAVTDYSVTRNNVIQLCLELTTIVQQDCTVYETENKILHVCKTLSGVCDHIISLSSDPLVSQSAHLEVIQLANIKPSEGLGMYIKSTYDGLHVITGTTENSPADRCKKIHAGDEVIQVNHQTVVGWQLKNLVNALREDPSGVILTLKKRPQSMLTSAPALLKNMRWKPLALQPLIPRSPTSSVATPSSTISTPTKRDSSALQDLYIPPPPAEPYIPRDEKGNLPCEDLRGHMVGKPVHKGSESPNSFLDQEYRKRFNIVEEDTVLYCYEYEKGRSSSQGRRESTPTYGKLRPISMPVEYNWVGDYEDPNKMKRDSRRENSLLRYMSNEKIAQEEYMFQRNSKKDTGKKSKKKGDKSNSPTHYSLLPSLQMDALRQDIMGTPVPETTLYHTFQQSSLQHKSKKKNKGPIAGKSKRRISCKDLGRGDCEGWLWKKKDAKSYFSQKWKKYWFVLKDASLYWYINEEDEKAEGFISLPEFKIDRASECRKKYAFKACHPKIKSFYFAAEHLDDMNRWLNRINMLTAGYAERERIKQEQDYWSESDKEEADTPSTPKQDSPPPPYDTYPRPPSMSCASPYVEAKHSRLSSTETSQSQSSHEEFRQEVTGSSAVSPIRKTASQRRSWQDLIETPLTSSGLHYLQTLPLEDSVFSDSAAISPEHRRQSTLPTQKCHLQDHYGPYPLAESERMQVLNGNGGKPRSFTLPRDSGFNHCCLMLQLVPVTHRMTCNPQRWRKRRRRRRRKGRQQGKT | soluble |
| VRLSNPDILLNIHVSHEEVTLSLDSSGDSLHKRGYRVAETTAPLNEVLAAGILLKAGWDGSTDLIDPMCGSGTFLIEAALIACNIAPGIYRRGFAFQRWADFDLDLYDELFHDDSAERVFDHIIYGSDILPQAVAAARSNVERAGLGRYISLSVLPMQQRPKPESKAMLVMNPPYGERIKVEDMQQLYTMIGERLKHNYAGCSAWILAFKPEHFNHIGLRQSHREKLMNGALECELRGYELFEGRR | not soluble |
| VRPLNCIVAVSQNMGIGKNGDLPWPPLRNEFKYFQRMTTTSSVEGKQNLVIMGRKTWFSIPEKNRPLKDRINIVLSRELKEPPRGAHFLAKSLDDALRLIEQPELASKVDMVWIVGGSSVYQEAMNQPGHLRLFVTRIMQEFESDTFFPEIDLGKYKLLPEYPGVLSEVQEEKGIKYKFEVYEKKD | soluble |
| VSAPDSPALAGMSIGAVLDLLRPDFPDVTISKIRFLEAEGLVTPRRASSGYRRFTAYDCARLRFILTAQRDHYLPLKVIRAQLDAQPDGELPPFGSPYVLPRLVPVAGDSAGGVGSDTASVSLTGIRLSREDLLERSEVADELLTALLKAGVITTGPGGFFDEHAVVILQCARALAEYGVEPRHLRAFRSAADRQSDLIAQIAGPLVKAGKAGARDRADDLAREVAALAITLHTSLIKSAVRDVLHR | soluble |
| VSDFKYGALLNITTLSNKVLSLGYEKPFIDSGQARTRLNGPLAEFFLYKTDGIFKTQEQIDNYVTPDGEPIMISGKRPQLGDVKYIDTDNNGQITADDRQFCGSPWAKMQMSLVLNAEWKDFDFSMMWNGQFGNKIYNVSKWQGRLFSDNSNYLRFKKGEEPYQVNQNSDTPRIIYGDQRNSWDADRFLENGSYFRLKNISIGYNLKKEWLKNLGIDKLRLYATGSNLLTFTGYSGLDPDFINTNIWNSGTDSFSYPNTRSVMFGLDLTF | not soluble |
| VTSGTALPSADDLLVLLAVGRTGRFNTAADDLGVNHTTISRRIASLEKSLGGRVLVKAAGGWELTDLGRQALTAAERVEAAVHGLVAEPGRADHLKGVVRVSATDGFSAYIAAPAGALIRSRHPEVSVEIVAITRRASQHRSGLDIEIVVGKPQVHRAEALWLADYTLGLYGAKSYLSAHGTPRQVGDLADHSLVYFIDSMLQVDELDLARRLTVSMRESVTSTNVFVHVEATRASAGIGLLPCFMADRHDDLVRVLPGQVEATLAYWLVARPESLRRPEVAAVVGAIRETVESQRDALAGQ | not soluble |
| VVDFGALPPEINSARMYAGPGSASLVAAAKMWDSVASDLFSAASAFQSVVWGLTTGSWIGSSAGLMVAAASPYVAWMSVTAGQAELTAAQVRVAAAAYETAYGLTVPPPVIAENRAELMILIATNLLGQNTPAIAVNEAEYGEMWAQDAAAMFGYAATAATATEALLPFEDAPLITNPGGLLEQAVAVEEAIDTAAANQLMNNVPQALQQLAQPTKSIWPFDQLSELWKAISPHLSPLSNIVSMLNNHVSMTNSGVSMASTLHSMLKGFAPAAAQAVETAAQNGVQAMSSLGSQLGSSLGSSGLGAGVAANLGRAASVGSLSVPQAWAAANQAVTPAARALPLTSLTSAAQTAPGHMLGGLPLGQLTNSGGGFGGVSNALRMPPRAYVMPRVPAAG | soluble |
| VVGNMTPDFLGSVATTLTWKDLSLNVGLDMRFGGLVASYCNLYGTQAGWTESSLQYRDPEHGGMTWTSQYADSKGIQYTDGMIPEGVFKEGTIATLVDGTKMDVSGLSYAQLVQEGKLEPTHAGSWYGNNYAWGAQTIDDIWVHKLSYIALRNITINYRLPNSISHKLGAKGLNLSFSARNLGYLYNSLPNNLNPESVRSNSASEFRIRGFEPYTASYIFTINANF | not soluble |
| VVTRQLGRAPRGVLAIAYRCPNGEPGVVKTAPRLPDGTPFPTLYYLTHPVLTAAASRLETTGLMREMNRRLGQDAELAAAYRRAHESYLSERDALEPLGTTVSAGGMPDRVKCLHVLIAHSLAKGPGLNPFGDEALALLAAEPRTAATLVAGQWR | soluble |
| VYWLNWTDRTRKFTIYNDIIERSLLTLKMMSFYNGAVLASLTTSLPEAVGEVRNWDYRFCWLRDASMSIETLFKIGHADATRKFMKFIQSTFVAEHDTYQIMYGIRGERKLTEVILDHLSGYKNSQPVRIGNDAYHQRQNDSFGYLMDLIYQYYRLMPGTLDEIEDMWEMVKSIMTTVMEDWRKPDKGIWEIRGEGQHFVSSKVMCWVALDRGARIARILNKYENSRRWEEEADAIKADVMRNGWKEEIQSFSQAYGNLDLDSSLLLMEPYGFIDADDIRYHKTVKAVKQSLLHKGLMYRYNTHDDFGCPSSAFTICTFWLIRALYVIGEKDEARCLFDEILQYSNHLGLFSEDIDFETKEQLGNFPQAYSHLALVNTAVLFAE | not soluble |
| WLEPYLAGVTSVKGLQSVSVLQALKHYLGWELSQQLDEWLPTHHLLPTGNHKKIRYQLGMEPTLSVRMQEVFGEQSSPRVAKGTRAVVMELLSPAQRPLQVTRDLASFWAGAYKEVQKEMKGRYPKHVWPDDPANHVATSKTKRQLNA | not soluble |

— the DeepSol protein solubility set
